Molecular target: TLR5 on RAW 424 (TLR5+) cells
Assay: cell-based or functional assay

Row | Substance | TNF-α production by RAW 424 (TLR5+) cells, half-maximal stimulation [pM]
1 | P. aeruginosa type A flagellin (strain PAK), recombinant full-length (from UniProt P21184 2-394) (ligand) | 16
2 | P. aeruginosa type B flagellin (strain PAO1), recombinant full-length (from UniProt P72151 1-488) (ligand) | 4e+07

Reference: patent US20120064106A1
